Numbered stars: 1 amine (or outer) side, 2 acyl side, 3 side chain; on linkers, the order of the positions; unused ones are H or OH. Bridge positions count the residues as written; N and C are the ends. Side chains are listed from the residue outwards. Ends that are not written are not given here. * marks the point of attachment. C20 diacid = O=C(O)CCCCCCCCCCCCCCCCCCC(=O)*; γGlu = O=C(O)[C@H](CCC(=O)[*:2])N[*:1]
T1: human calcitonin receptor (human, UniProt P30988 25-474)
T1 construct: whole, on cells; Membranes prepared from a stably transfected BHK cell line (Assay VII); also called hCTR; hCT
T1 sequence (looked up): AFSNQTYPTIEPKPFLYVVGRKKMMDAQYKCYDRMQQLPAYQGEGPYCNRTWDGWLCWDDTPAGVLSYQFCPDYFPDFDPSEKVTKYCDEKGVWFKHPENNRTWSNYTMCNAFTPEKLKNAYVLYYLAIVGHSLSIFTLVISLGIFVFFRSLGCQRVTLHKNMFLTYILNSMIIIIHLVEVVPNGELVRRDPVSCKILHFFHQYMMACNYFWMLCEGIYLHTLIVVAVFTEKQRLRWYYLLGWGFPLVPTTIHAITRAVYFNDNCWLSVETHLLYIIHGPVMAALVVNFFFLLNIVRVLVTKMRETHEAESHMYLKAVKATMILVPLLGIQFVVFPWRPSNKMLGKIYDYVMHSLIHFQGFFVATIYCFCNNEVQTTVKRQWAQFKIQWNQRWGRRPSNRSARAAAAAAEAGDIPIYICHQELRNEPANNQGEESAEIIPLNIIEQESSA

T2: rat calcitonin receptor (rat, UniProt P32214 25-516)
T2 construct: whole, on cells; Membranes prepared from transiently transfected BHK tk'ts 13 cells (Assay VIII); also called rCTR; rCT
T2 sequence (looked up): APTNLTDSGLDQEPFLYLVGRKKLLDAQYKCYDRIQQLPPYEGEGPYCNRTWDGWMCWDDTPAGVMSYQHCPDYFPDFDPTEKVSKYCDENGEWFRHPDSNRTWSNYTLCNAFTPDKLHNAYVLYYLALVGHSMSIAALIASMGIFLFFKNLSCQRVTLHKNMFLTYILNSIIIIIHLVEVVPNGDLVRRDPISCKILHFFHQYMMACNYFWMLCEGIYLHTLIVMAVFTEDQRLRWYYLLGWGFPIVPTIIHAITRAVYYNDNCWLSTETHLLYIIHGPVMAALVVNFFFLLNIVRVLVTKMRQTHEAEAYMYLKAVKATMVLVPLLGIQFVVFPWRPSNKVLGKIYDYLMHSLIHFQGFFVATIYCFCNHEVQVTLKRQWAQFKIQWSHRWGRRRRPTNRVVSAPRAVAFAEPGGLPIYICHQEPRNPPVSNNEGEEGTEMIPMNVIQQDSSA

T3: rat amylin receptor (rat calcitonin receptor + rat RAMP 3) (rat, UniProt P32214 25-516; Q9JJ73 23-147)
T3 construct: whole, on cells; Membranes prepared from transiently transfected BHK tk'ts 13 cells (Assay VI); also called rAmylin-R; rAmylin
T3 sequence (looked up) 1: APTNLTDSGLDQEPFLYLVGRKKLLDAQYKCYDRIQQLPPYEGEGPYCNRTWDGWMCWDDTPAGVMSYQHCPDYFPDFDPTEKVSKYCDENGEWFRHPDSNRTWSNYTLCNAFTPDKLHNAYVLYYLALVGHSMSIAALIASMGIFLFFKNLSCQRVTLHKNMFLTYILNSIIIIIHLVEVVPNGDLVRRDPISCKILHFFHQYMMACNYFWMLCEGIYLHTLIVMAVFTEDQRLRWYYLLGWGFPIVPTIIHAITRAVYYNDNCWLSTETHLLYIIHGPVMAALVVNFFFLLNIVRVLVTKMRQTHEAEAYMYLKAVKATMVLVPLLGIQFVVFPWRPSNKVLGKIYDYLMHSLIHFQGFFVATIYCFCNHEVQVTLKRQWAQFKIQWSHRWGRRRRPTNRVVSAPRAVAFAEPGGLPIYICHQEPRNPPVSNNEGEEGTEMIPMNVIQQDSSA
T3 sequence (looked up) 2: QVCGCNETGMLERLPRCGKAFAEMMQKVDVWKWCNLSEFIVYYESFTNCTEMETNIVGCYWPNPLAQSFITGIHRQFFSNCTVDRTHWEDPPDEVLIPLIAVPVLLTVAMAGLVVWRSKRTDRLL


How the values were obtained:
[1] = biological target: T1, human calcitonin receptor; test: ratio of binding IC50s: human calcitonin receptor / human amylin receptor (reference)
Method in brief: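 Membranes (35 ng/μL final) + SPA beads, 50 mM Hepes pH 7.4 buffer with 1 mM CaCl2, 5 mM MgCl₂, 0.1% OA, 0.02% Tween20; 120 min, 25° C, shaking; centrifuged, counted; IC₅₀ by one-site binding competition.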

rat calcitonin receptor [2] = biological target: T2, rat calcitonin receptor; test: ratio of binding IC50s: rat calcitonin receptor / rat amylin receptor (reference)
[3] = biological target: T3, rat amylin receptor (rat calcitonin …); test: SPA competition vs 125I-rat amylin, membranes of BHK cells with rat calcitonin receptor + rat RAMP3 (Assay VI)
rat calcitonin receptor [4] = biological target: T2, rat calcitonin receptor; test: SPA competition vs 125I-calcitonin, membranes of BHK cells with rat calcitonin receptor (Assay VIII)

Binder | Ratio hCT/hAmylin binding [1] | Ratio rCT/rAmylin binding (rat calcitonin receptor [2]) | IC50 [3] | IC50 (rat calcitonin receptor [4])
K([γGlu-C20 diacid])CNTATCATQRLANFLRHSSPNFGAIPSSTNVGRNTY-NH2 (disulfide 2-7; N-terminus assumed; SMILES CC[C@H](C)[C@H](NC(=O)[C@H](C)NC(=O)CNC(=O)[C@H](Cc1ccccc1)NC(=O)[C@H](CC(N)=O)NC(=O)[C@@H]1CCCN1C(=O)[C@H](CO)NC(=O)[C@H](CO)NC(=O)[C@H](Cc1c[nH]cn1)NC(=O)[C@H](CCCNC(=N)N)NC(=O)[C@H](CC(C)C)NC(=O)[C@H](Cc1ccccc1)NC(=O)[C@H](CC(N)=O)NC(=O)[C@H](C)NC(=O)[C@H](CC(C)C)NC(=O)[C@H](CCCNC(=N)N)NC(=O)[C@H](CCC(N)=O)NC(=O)[C@@H](NC(=O)[C@H](C)NC(=O)[C@@H]1CSSC[C@H](NC(=O)[C@@H](N)CCCCNC(=O)CC[C@H](NC(=O)CCCCCCCCCCCCCCCCCCC(=O)O)C(=O)O)C(=O)N[C@@H](CC(N)=O)C(=O)N[C@@H]([C@@H](C)O)C(=O)N[C@@H](C)C(=O)N[C@@H]([C@@H](C)O)C(=O)N1)[C@@H](C)O)C(=O)N1CCC[C@H]1C(=O)N[C@@H](CO)C(=O)N[C@@H](CO)C(=O)N[C@H](C(=O)N[C@@H](CC(N)=O)C(=O)N[C@H](C(=O)NCC(=O)N[C@@H](CCCNC(=N)N)C(=O)N[C@@H](CC(N)=O)C(=O)N[C@H](C(=O)N[C@@H](Cc1ccc(O)cc1)C(N)=O)[C@@H](C)O)C(C)C)[C@@H](C)O, Analogue of human amylin; also called compound 79) [N^ε1-[(4S)-4-carboxy-4-(19-carboxynonadecanoylamino)butanoyl]-[Arg17,Pro21,Pro27,Arg34]-h-amylin] | 46.1 | 21.5 | 1.65 nM | 35.5 nM
K([γGlu-C20 diacid])CNTATCATQRLANFLRHSSPNFGAIPSSTNVGSHTY-NH2 (disulfide 2-7; N-terminus assumed; SMILES CC[C@H](C)[C@H](NC(=O)[C@H](C)NC(=O)CNC(=O)[C@H](Cc1ccccc1)NC(=O)[C@H](CC(N)=O)NC(=O)[C@@H]1CCCN1C(=O)[C@H](CO)NC(=O)[C@H](CO)NC(=O)[C@H](Cc1c[nH]cn1)NC(=O)[C@H](CCCNC(=N)N)NC(=O)[C@H](CC(C)C)NC(=O)[C@H](Cc1ccccc1)NC(=O)[C@H](CC(N)=O)NC(=O)[C@H](C)NC(=O)[C@H](CC(C)C)NC(=O)[C@H](CCCNC(=N)N)NC(=O)[C@H](CCC(N)=O)NC(=O)[C@@H](NC(=O)[C@H](C)NC(=O)[C@@H]1CSSC[C@H](NC(=O)[C@@H](N)CCCCNC(=O)CC[C@H](NC(=O)CCCCCCCCCCCCCCCCCCC(=O)O)C(=O)O)C(=O)N[C@@H](CC(N)=O)C(=O)N[C@@H]([C@@H](C)O)C(=O)N[C@@H](C)C(=O)N[C@@H]([C@@H](C)O)C(=O)N1)[C@@H](C)O)C(=O)N1CCC[C@H]1C(=O)N[C@@H](CO)C(=O)N[C@@H](CO)C(=O)N[C@H](C(=O)N[C@@H](CC(N)=O)C(=O)N[C@H](C(=O)NCC(=O)N[C@@H](CO)C(=O)N[C@@H](Cc1c[nH]cn1)C(=O)N[C@H](C(=O)N[C@@H](Cc1ccc(O)cc1)C(N)=O)[C@@H](C)O)C(C)C)[C@@H](C)O, Analogue of human amylin; also called compound 60) [N^ε1-[(4S)-4-carboxy-4-(19-carboxynonadecanoylamino)butanoyl]-[Arg17,Pro21,Pro27,His35]-h-amylin] | 45.2 | 122 | 0.215 nM | 26.3 nM

Source: patent US20140087995A1 (published 2014)
